Test results taken from article PMC2784912 (Biochemistry, 2008).

Legend:
[1] = tested on: MDA-MB-231 cancer cell line; assay: Apoptosis by annexin V/propodium iodide flow cytometry; type: cell-based, human; settings: MDA-MB-231, 24 h, annexin V/PI
[2] = biological target: XIAP linker–BIR2–BIR3 protein (residues 120–356) (human) (UniProt P98170); assay: fluorescence polarisation
[3] = biological target: XIAP BIR3-only protein (residues 241–356) (human) (UniProt P98170); assay: fluorescence polarisation
[4] = biological target: XIAP BIR2-only protein (residues 120–240) (human) (UniProt P98170); assay: fluorescence polarisation

| Compound | induction of apoptosis [1] | Ki [2] [nM] | Ki [3] [nM] | Ki [4] [nM] |
| --- | --- | --- | --- | --- |
| COC(=O)CC[C@H](NC(=O)[C@H](CC(=O)OC)NC(=O)OCc1ccccc1)C(=O)N[C@H](C(=O)N[C@@H](CC(=O)OC)C(=O)CF)C(C)C [Z-DEVD-FMK] | no effect on cells |  |  |  |
| compound 2 (monovalent Smac mimetic, N-methyl-AKPF) (peptide) |  | 900 | 86 | 11700 |
